Source: publication PMC11041684

Molecular target: Schlegelella thermodepolymerans KpsE (L77C, S138C) (Schlegelella thermodepolymerans)
Test: cryo-EM structure; KpsMT(E151Q)-KpsE, co-expressed and purified in LMNG (100 mM NaCl, 50 mM Tris pH 7.5, 0.025% LMNG, 5 mM MgCl2), supplemented with 2 mM ATP before grid preparation

stoichiometry N: 8
Substance: Schlegelella thermodepolymerans KpsE (L77C, S138C) (natural protein)
